Results as given in the supplement of paper PMC12636428.

System: Saccharomyces cerevisiae
Test: transcriptional activation domain activity (GFP:mCherry ratio, weighted mean of sorted bins, harmonized to initial dataset scale) (arbitrary fluorescence ratio units); higher = stronger transcriptional activation
Conditions: beta-estradiol 1 µM; induction time 4 h
Procedure, shortened: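 After a 1:5 dilution into SC with 1 uM beta-estradiol and 4 hours at 30 °C, yeast diploids carrying a GFP reporter and URA3-integrated barcoded tiles were sorted into 8 bins by GFP:mCherry ratio. The tiles were fused to an estradiol-inducible synthetic transcription factor. Barcodes were sequenced, tiles below 50 reads were discarded, and activation activity was taken as the read-weighted mean of bin median fluorescence, averaged across barcodes and linearly mapped onto the initial dataset scale.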

Sequence | transcriptional activation domain activity
TIGFVGFVMSLQKGYLKQQFGLFCWVHMSLLIIVLSSHFIVNNILEGLIWFWV | 58700
MVFLLIFIVSTLFFCLFLYLLLPSFFYVIFALLAHIFVFSVSLHRQPLLLYLS | 49300
MTVMTLCFFGSSFGPWAGAWFCCLLLLLLLLVIAVSLFLHVCFAWEFWFCLCY | 39500
EREKKKGREKEEKGGKERRGKKGRGKEEGKKRRKRGRKERKEGRKGEEGKRGR | 33600
GWKYIILAACDVEGNFLVVKVGLFSTTILLVMTLRYQAYQYTNLLSCMLLDAW | 43000
MWSLCILLVGLLIWYIVFFSYPPPNRIYLFSPSLGVCLVSFFFFLWGLFGGVF | 53400
KLGLGPTYGIMLALLVSHGIVCCFKTSILARLNVYYVILNLGTLIALSVALLV | 50600
ESASTNTSSALNCQSYTNNQDIMDILFQVTSGSVWDEFFVRSGNGNEGESSYD | 86700
TDYYQAVGQHDFIKAFHDEIGPFHRKVYDNVIRKIFVLLAIILELPENYFVDR | 40900
LQKDKFKVELQLLDIRVSDKLLMGIEKAIREFLTQKFVICRRVFVPWVPKVLF | 61500
NNETETATKARRKKQAPKAAVEGSEDYESETATKAVAKKETKKKPIQKEVLVP | < 6570
MFFLFPFLTFGYPAFNLKLCLLIQSNSYCHSFSSLSLYALLLLYLRLLLILLI | 71100
MVVLCPYNVLQKRERDAFLLALRRCLFAPINHPVYFSDVVFADIFTSYAKVLG | 44000
AAPVVAKKDDKKDKKKEEKKGEKEEKKPADEKKGGDKPKKEKKKAEKKPAAAP | 22200
AASWILLGFFIKQLYEEFGWAIFHVVGANPKMKTMYQWYQIMICLLKFDFFFF | 48500
MNLSRVFLKVRAIAFSCISLLSFLWIILLCLMLYYRWDESDHSEHSLLIILLL | 45100
RVPPNSSQKTGEPSSSSTKPVASSAVRNRVPPNSSQKTGEPSSSSTKPVASSA | 52900
LLVLYGLTWAFNLISCMLISTNNGNYISCILGLFNCVFVYTLTKMILYLYFIE | 57000
MWLIWLIWLLALLVDLFSFSVLFFFSLSLFLSFFWFFFFSFFQSFFPFLAVSF | 66900
PKEDVQPEPEAQPAESVEAAPASEEQAPVEKTEEAPATEETEESRPSPPAARL | 37600
VMSYLLCVALVFPVMIVLMLLGCVWFLIVLFFMLGVLIFIMCIGPLYVILKAP | 10200

Sequence | transcriptional activation domain activity
RTFLRWTLDTLAQCTTFEVMWLILTGVIQDYIDEYKRNRTLTKLLIEALIKSY | 55500
NSSVYETVTRNLHDDLLGGSLNLKVILEMLLAHVIVNPSLVLEPAASLLRRNG | 58200
MYWNYPGFIWPLGFPWFFFFFFFRSGSLLPRPCPVDTVFHFQFFFFFFFFFFF | 51300
MGMEHLAQPDQPNKKKRRRQALSCTECKRRKIKCDRKQPCSPCTRRGEQAKCQ | 29900
MTHALNIVTYLYRQHLLEDEHFLDWILRNLGPCPLERLLVWLLLVSLYWRDLI | 49800
HSRSPSRHRRRSYSRSRRYDSRSPRRRRSGSPSRRIVDEEEAAVTDGFIRAVA | 37300
KAAKRGRNARRKRKDKPKGQDHEDEKSKINDDELEYASPSNATVTNGPQTSPD | 14300
EAPAPVEEQPVQEPEPEAIPEPEPVPQETPQAYEEPPAPEPKPAPTPKAQPVQ | 23300
YIKGVVLALWILDTFGMCLIFHILYWYLITNYGNPLSITEPIWSIILHIMVTA | 48500
HWDGVCRLFFFIYYIYFYFSMRACLLVLILCFESIVFGLVSFLVYLFSPFFFR | 40900
YGCNELIFNPLIDWWRKGPITRQLRTFMWSDAPLHYKIGMLSYMFSYYALSGA | 36300
AQLHHRTWLIHWSLFPFFNFEPAKETLTEMFFSPAYINTIQTNCPWILRYLAA | 56700
MSCLDWNVFVFFFYLSILIFRLITHHYLSVFDLFFLYPFFLFLFTFPPTSFLL | 49500
PFTIVFILPFDFSSTQYRICEHNCDAPLGYISSQFTRRLWVVLYWTMYLLTWL | 67000
CWILGFISVFTFAYLVLTVLPNLYLNCPYSTPLSELSWRLSQHLLLLILHLIR | 69500
PQEPQKGEEEGGARGRPRCPRRRGGPKEEAAVPVEAPAVLAAEPVKADEPAAP | 30200
LEEIHILERLYYKSKNQHHASLFWRKLTEIRRVTTRLLKFNVTETVASIPLAF | 59200
TMYYDAIWLMWKDHSLQGWEVAHNTFDQLHVVLDDHLLYPVLNLLMIVIILPD | 51200
MKELSFFPISISIQRYSHIRWVLLHCTNYLISFVYHCYVIILSVFFFLYIFTA | 76900
GKISKDYHHVPSLASISSLQSSQSLDQNFSIPQSPPLSSMSFNFLTGNINETN | 43600
VVVILRMWAFCYRGSGHAHEMLHLLHNLICVWTKEFQYIVLQNWLANPQGKPK | 58500

Sequence | transcriptional activation domain activity
KTHPQASAEADGEEDAEPEGQAKSRQPSRRRQSRGRGRRGGPQESDTESIARS | 19300
MTVEPSISLLFIDYLLFLIPFLSLFILFSLVLLLSYISPCNFFFFAISSQLPW | 39200
MLCIPFCVLFCVVMGLINYGAFVDPCFLSFYVLLSTLLQLPSSFLPFFLFLPP | 66900
VYSYKKRMWHYFLFDLCYYVNIINLVYIWILPQSAWLFVACYCLSHGSVASAV | 58700
SVTSEAIQVCVAARAREGEANRAVRNVIAEALRVPKSNVQVAKGLKSREKTLI | 43300
QNESERLGPPKKKRRRQALSCTECKRRKIKCDRTHPCGPCARRSEPEKCQWHV | 27600
TFFLMRDIFIMEFLAHCDLLTIFVLAQTGEYARDLVKAFFSCNLRLLVVIFLG | 47700
AINYASMCKQYERAEYTQRLMIELDPVLRHSWSRRLATWRLTETWTHYLVLNI | 68900
MWLLFYARACLSLLWFTSARVLFFSSFLTFSFLIIWLLGSFDIFRILVLFSFF | 87100
EWAPDVLRKSAKTFTQEGPMVKLQIVTLAAKLLVLSPVDPRLTLLCRYVFSLA | 46000
MEDAGDDATPATKKGKGMKKRKKGEESDGENEKPAKTPKTKLKLTNKTPKEAS | 36600
ISSSEKESDGENDSDSEENEQNDQSEIFPEFLGRRDPWQAVTVFILALLVFRN | 66500
ATSVWLRVFFIAVSSIAVIPILNFWGLCKLWGFIFFFSCGNVYVGLLFTVVLF | 62300
FIPLQAGIKQLIGRLSLPRHPLSNLNHLIPRHIVFTDCIWLILRQLSTLKHWA | 57800
MESAKKAVESVAEGIKKVAISGDQKPAAGGKKEGGKKEKKAAKAGAEVSSGPL | 34300
LKIKLLVAWLWLLDTIHTCLLCSSNWRSLIVHYGDRRALDFIPTTTALGILFT | 34100
MVLHMRGHVQNKIKITLFTAFFFFVQIRSLGWILFLGFSFSALFFPIFFIFFI | 55000
MSSEKSSRASKTPTPTPAPPGDHRKRRRNRTTQSCLNCHASKRMCDRKRPACQ | 52300
SFSVILFYFIFLISPGQKAAFVFPWSFFFFLFFFFFFFTFFYFRLFSANFVCV | 45000
MLRCVFFLYCFLLVTFFSSRRVLVCAGAYLSSSYPLMPDCQYWVYFAFLRCFS | 52400
AILIRSIFRVAEFAGGCVVSFSLWMCHKTTCIFLRFDTLPLWLAMSLYCVVWP | 49700

Sequence | transcriptional activation domain activity
EDEEEEEEEQEEEEEKEEEVLWAAAPEGGKPVEEEEEEEVVEAEEKKPGEEDA | 24500
MAFFYLCYIIISLVLYLFFLCSSFCCFMIHEFSLLSSLSQFSQRVYIGWSFFR | 58300
EGDDEAPVQPKGRPRKSKAAAAESADEEPRPKAVRSRPSRARKSKPVASDSDV | < 6570
VDRFKEFSHFLRRNENRTPSMIVLRRLCLDVSFLLCVVGFVRILWKRSGMRRR | 62400
QGEEGEKKAGGRGRGGGRKKAEKHMAEGSGDEISPKKSGKGGEAGGSKAAAGA | 33700
TINLSLPPRDRYVLVATDYAHVLREMPCLYDEAVQHMKLPAGFFHLLGRILLR | 58100
LPTSFLEYCFRLICLWKPHLIREYFKEWFIFPNVVGWKYILQTFFNILEHVHD | 46600
ASTETPLPVPKRRGRPPKNNNAAGIVVFDGGEEAPAVKKRGRPKKVTEPVAST | 23100
IRQLFGNYVLLYFFPWGFGCGFLPVLFPVQTCRIYHYLLFYFFFLSPFFFSIP | 36700
GMEGERVKESIRRVQHQGADELYRRSQEKNGKGLRLSQSKTRSRGETPLQLIA | 63100
GFTFYFSLHFHIFHIFHYLWEPRATILFFLTSLLFFFFTPIFTFMHCIIFIGF | 78900
KSKKKRRMEEEEEGDEEEEEEQREREEERGERGEREARVRREGKAKKSASSRD | 17300
GHGTHCSGTVAGKKYGVAKKANVYAVKVLRSNGSGTMSDVVKGVEYAAEQHSE | < 6570
MLAYRSQQGWSEGDFLACRWFFSFFFPLFLPLSPPSFLCPFSFLFLFFLLLHL | 45300
VIHLMNMGQVSILFIHRFIYGVVPLFEIVSCSFWPLLVSLWHLDYILIYLIMF | 46300
MLWGDTQILVVLLHYILPTYQFPRFYFYYMYLPLRSWLLVDNPFLFSYSALIQ | 63200
FFFFHFFFFWSSLRHIFQVLILGALGFLFFHFSFFIFHFSFFIFHFHFLFFFS | 50400
ACSCLSLITIFVGSGVVFQWFVSLIGSVLFQSWILILLLHFRFRYCWRKQGRP | 49200
ILDLTVRFWGNVKLLRRLWNGIYHFASYHMSSMTRAKVTIVSDLLLGTYILKR | 70700
EETKAEEPKATEAATTSTAPAAATEATTAATAETTTEEAKPATNGSTAAADAA | 23200
